Biological target: RNA polymerase II (RNAPII) (human (endogenous in HepG2)) (UniProt P24928)
Experiment: co-sedimentation; HepG2 cell lysate on a 10-40% glycerol gradient in NP-40 lysis buffer (50 mM HEPES pH 7.5, 100 mM NaCl), 50,000 rpm for 11 h at 4°C; fractions detected by Western blotting

percent of RBM22 linked with RNAPII: 40%
Substance: RBM22 (endogenous) (from UniProt Q9NW64 1-420) (natural protein)
